Biological target: IFNγ (UniProt P01579)
Assay: cell-based or functional assay

Sequence of UniProt P01579 (P01579 24-166 limits assumed): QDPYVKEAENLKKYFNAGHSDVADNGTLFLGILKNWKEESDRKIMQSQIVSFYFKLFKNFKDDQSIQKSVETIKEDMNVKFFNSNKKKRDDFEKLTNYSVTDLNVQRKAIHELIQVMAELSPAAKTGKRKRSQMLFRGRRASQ

| Substance | IC50 nM, inhibition of IFNγ antiviral activity (CPE, WISH cells, EMC virus) [nM] | IC50 µg/ml, inhibition of IFNγ antiviral activity (CPE, WISH cells, EMC virus) [µg/mL] |
| --- | --- | --- |
| hIFNγR-HG3 (from UniProt P01860 99-377) (Fc fusion) | 11 | 2 |
| hIFNγR-HG1 (from UniProt P01857 99-330) (Fc fusion) | 26 | 4.4 |
| soluble human IFNγ receptor (shIFNγR) | 216 | 6.7 |

— patent publication EP0614981A1
